Data: patent US20220363763A1 (ABL BIO, published 2022)

Key:
human LAG3 on cells [1] = target: T1, human LAG3 on cells (human, UniProt P18627 23-525); assay: flow cytometry on activated CD4 T cells
T1 construct: whole, on cells; also called Jurkat-LAG3
T1 sequence (looked up): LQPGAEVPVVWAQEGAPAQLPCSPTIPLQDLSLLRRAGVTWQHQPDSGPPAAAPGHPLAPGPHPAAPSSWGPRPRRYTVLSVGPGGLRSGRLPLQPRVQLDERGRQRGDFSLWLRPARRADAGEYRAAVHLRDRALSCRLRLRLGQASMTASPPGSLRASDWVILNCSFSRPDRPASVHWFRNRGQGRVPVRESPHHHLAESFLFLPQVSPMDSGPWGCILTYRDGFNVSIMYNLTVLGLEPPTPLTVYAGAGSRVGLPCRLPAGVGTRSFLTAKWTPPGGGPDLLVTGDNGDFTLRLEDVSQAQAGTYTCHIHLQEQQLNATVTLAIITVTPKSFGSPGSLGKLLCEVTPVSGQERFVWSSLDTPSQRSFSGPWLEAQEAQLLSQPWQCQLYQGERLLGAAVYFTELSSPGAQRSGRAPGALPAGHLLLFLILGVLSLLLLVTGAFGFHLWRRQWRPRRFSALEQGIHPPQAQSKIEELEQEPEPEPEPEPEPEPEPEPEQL
Description: (§1) To further confirm affinity matured anti-LAG-3 antibodies could bind to cell-derived human LAG3, both inducible hLAG3 expressed Jurkat cells and activated PBMCs were used to test the binding capability of B3807b and B3810. In brief, Jurkat cells were resuspended in FACS buffer. Anti-LAG3 antibodies and isotype control were 4-fold serially diluted in FACS buffer with a dose ranging from 20 nM to 30 pM. The serially diluted antibodies were added to the cell suspension and incubated for 30 minutes on ice. Then after removal of unbound antibodies, cells were stained with anti-human IgG conjugated with Alexa Fluor 633 (Thermo, A21091). Fluorescence measurement was acquired on FACSCelesta flow cytometer and analyzed in Flowjo to determine the mean fluorescence intensities (MFI). To test anti-LAG3 antibodies' ability of binding to native human LAG3, PBMCs from health donor were stimulated with anti-CD3 (BD, 555336) and anti-CD28 (BD, 555725) both at a concentration of 1 ug/ml. Following 3 days' stimulation, cells were harvested and incubated with anti-LAG3 antibodies for 30 mins on ice. The cells were stained with anti-human CD4 and anti-human IgG. Analysis of antibodies binding to CD4+ cells were carried out on FACSCelesta flow cytometry. […] FIG. 31 is a graph showing the binding curve of anti-LAG3 antibodies.

[2] = target: T2, recombinant human LAG-3-ECD-human IgG1 fusion protein (human, UniProt P18627 23-450, biotin-labeled in the MHC class II blocking assays); assay: ELISA as Example 2.2, coated human LAG3 ECD-Fc
T2 construct: extracellular domain; also called LAG-3-huFc; LAG-3-ECD-huFc; not shown: human IgG1 Fc
T2 sequence (looked up): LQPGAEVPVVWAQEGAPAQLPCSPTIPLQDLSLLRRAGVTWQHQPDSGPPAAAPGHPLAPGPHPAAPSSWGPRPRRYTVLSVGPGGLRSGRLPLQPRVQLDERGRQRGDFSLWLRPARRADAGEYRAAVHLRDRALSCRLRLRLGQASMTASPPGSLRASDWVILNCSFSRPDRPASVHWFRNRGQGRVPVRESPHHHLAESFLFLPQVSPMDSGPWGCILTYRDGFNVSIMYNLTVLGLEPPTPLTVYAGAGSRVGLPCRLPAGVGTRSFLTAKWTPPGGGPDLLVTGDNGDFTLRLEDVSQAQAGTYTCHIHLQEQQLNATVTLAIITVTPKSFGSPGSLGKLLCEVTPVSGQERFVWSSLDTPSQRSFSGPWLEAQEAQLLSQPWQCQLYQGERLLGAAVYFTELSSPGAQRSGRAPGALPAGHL
Description: To evaluate the capability of the anti-LAG-3 antibodies to bind to human, rat, and mouse LAG3 the antibodies identified in Example 2.1 were evaluated for their binding property through ELISA. The human, rat and mouse LAG3 ECD-Fc protein were coated to ELISA plate at 1 μg/ml with 100 μl/well. Antibodies from Example 1 were serially diluted with ELISA diluent buffer. […] The resulting plates were washed and then labeled with anti-human IgG(Fab)-HRP antibody. The S31 can only bind to human LAG3. The S27 and T99 can bind to human LAG3 and rat/mouse LAG3 with lower potency. The S119 antibody can bind to human, rat and mouse LAG3 at high potency (FIGS. 22A-22D).

[3] = target: T3, recombinant his-tag human LAG3-ECD protein (human, UniProt P18627 23-450); assay: SPR Biacore T200, capture method as Example 2.7
T3 construct: extracellular domain; not shown: his tag
T3 sequence (looked up): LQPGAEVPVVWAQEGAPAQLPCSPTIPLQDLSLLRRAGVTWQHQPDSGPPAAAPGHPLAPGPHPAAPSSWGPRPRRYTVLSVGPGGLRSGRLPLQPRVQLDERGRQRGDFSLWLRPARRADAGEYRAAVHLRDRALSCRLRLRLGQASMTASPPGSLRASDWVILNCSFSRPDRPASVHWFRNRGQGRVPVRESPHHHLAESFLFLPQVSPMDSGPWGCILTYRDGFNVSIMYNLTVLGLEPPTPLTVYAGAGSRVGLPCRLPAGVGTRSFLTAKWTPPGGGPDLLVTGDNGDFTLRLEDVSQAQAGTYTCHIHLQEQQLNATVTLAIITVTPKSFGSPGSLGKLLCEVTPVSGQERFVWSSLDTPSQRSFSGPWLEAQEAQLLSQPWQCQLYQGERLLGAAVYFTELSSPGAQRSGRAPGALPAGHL

human LAG3 on cells [4] = target: T1, human LAG3 on cells; assay: flow cytometry on hLAG3-expressing Jurkat cells
Description: as §1

[5] = target: T3, recombinant his-tag human LAG3-ECD …; assay: Biacore, antibody captured, His-tag human LAG3-ECD injected (procedure of Example 2.16(B))
Description: (§2) The binding of B3807 to recombinant His-tag human LAG3-ECD protein was examined by Biacore T200 using a capture method. B3807 was captured using protein A which was immobilized on CM5 sensor chip. Serial concentrations of his-tag human LAG3-ECD protein (0-12 nM) were injected over capture antibodies at the flow rate of 30 μl/min. The dissociation phase was 900 s or 550 s.
(§3) B3807 was used in the following examples for further testing and preparing bispecific antibodies.

[6] = target: T3, recombinant his-tag human LAG3-ECD …; assay: Biacore, antibody captured, His-tag human LAG3-ECD injected (procedure of Example 2.16(B)); column kd(1/s)
Description: as §2, §3

[7] = target: T3, recombinant his-tag human LAG3-ECD …; assay: Biacore, antibody captured, His-tag human LAG3-ECD injected (procedure of Example 2.16(B)); column ka (1/Ms)
Description: as §2, §3

human LAG3 on cells [8] = target: T1, human LAG3 on cells; assay: flow cytometry (MFI) on Jurkat-LAG3 cells, upper panel; EC50 table has no unit, x axis Concentration (nM); Table 31 of the text prints the rounded 0.4
Description: as §1

human LAG3 on cells [9] = target: T1, human LAG3 on cells; assay: flow cytometry (MFI) on activated CD4 T cells, lower panel; EC50 table has no unit, x axis Concentration (nM); Table 31 of the text prints the rounded 0.33
Description: as §1

human LAG3 on cells [10] = target: T1, human LAG3 on cells; assay: flow cytometry (MFI) on Jurkat-LAG3 cells, upper panel; EC50 table has no unit, x axis Concentration (nM); Table 31 of the text prints the rounded 0.5
Description: as §1

human LAG3 on cells [11] = target: T1, human LAG3 on cells; assay: flow cytometry (MFI) on activated CD4 T cells, lower panel; EC50 table has no unit, x axis Concentration (nM); Table 31 of the text prints the rounded 0.39
Description: as §1

[12] = target: T4, human LAG3-His protein (Sinobio, 16498-H08H) (human, UniProt P18627 23-450); assay: ELISA on coated human LAG3-His, panel LAG3
T4 construct: also called human LAG3 protein; not shown: His tag
T4 sequence (looked up): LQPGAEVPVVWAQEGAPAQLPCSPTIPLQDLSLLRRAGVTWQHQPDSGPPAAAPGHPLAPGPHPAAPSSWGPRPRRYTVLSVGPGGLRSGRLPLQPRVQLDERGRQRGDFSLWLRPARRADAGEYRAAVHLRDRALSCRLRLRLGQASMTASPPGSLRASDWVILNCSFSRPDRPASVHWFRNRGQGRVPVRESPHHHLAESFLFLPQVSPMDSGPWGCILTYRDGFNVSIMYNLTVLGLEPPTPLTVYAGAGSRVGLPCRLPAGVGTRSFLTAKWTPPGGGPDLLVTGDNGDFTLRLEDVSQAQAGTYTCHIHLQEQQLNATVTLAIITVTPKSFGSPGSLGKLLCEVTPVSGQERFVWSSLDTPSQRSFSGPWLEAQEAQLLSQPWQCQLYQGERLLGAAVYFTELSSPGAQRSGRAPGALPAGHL
In short: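 Bispecific antibodies were tested by ELISA on plates coated overnight at 4° C with human LAG3-His protein at 0.5 μg/ml in PBS (100 μl/well), then blocked with 5% BSA. Four-fold antibody dilutions starting from 100 nM were incubated for 1-2 hours at RT. EC50 was read off the binding curve.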

[13] = target: T5, human PD-L1 (construct not stated) (human, UniProt Q9NZQ7 19-239, limits assumed); assay: SPR Biacore, affinity ranking
T5 construct: also called B7-H1 (PD-L1); PD-L1 protein
T5 sequence (Q9NZQ7 19-239 limits assumed): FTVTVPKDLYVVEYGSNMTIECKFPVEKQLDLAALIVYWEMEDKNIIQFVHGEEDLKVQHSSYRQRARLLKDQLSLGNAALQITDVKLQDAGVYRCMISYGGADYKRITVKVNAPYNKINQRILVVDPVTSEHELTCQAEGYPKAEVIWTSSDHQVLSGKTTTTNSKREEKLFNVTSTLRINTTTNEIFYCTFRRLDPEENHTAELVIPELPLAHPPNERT

human PD-L1-Fc protein = target: T6, human PD-L1-Fc protein (human, UniProt Q9NZQ7 19-239); assay: ELISA on coated human PD-L1-Fc
T6 construct: Coated on ELISA plates; also called huPD-L1; not shown: Fc part
T6 sequence (Q9NZQ7 19-239 limits assumed): as above
Description: To evaluate the antigen binding activity, the antibodies were subjected to ELISA test. Briefly, microtiter plates were coated with human PD-L1-Fc protein at 2 μg/ml in PBS, 100 μl/well at 4° C. overnight, then blocked with 100 μl/well of 5% BSA. 4-fold dilutions of humanized antibodies starting from 10 μg/ml were added to each well and incubated for 1-2 hours at RT. The plates were washed with PBS/Tween and then incubate with […] antibody conjugated with Horse Radish Peroxidase (HRP) for 1 hour at RT. After washing, the plates were developed with TMB substrate and analyzed by spectrophotometer at OD 450-630 nm.

[14] = target: T7, human PD-L1 expressed on mammalian cells (human, UniProt Q9NZQ7 19-290); assay: cell-based binding on Raji-PDL1 cells (FACS by paragraph 328; the y axis of the sheet is labelled IL2 (ng/ml)); EC50 table has no unit, x axis Concentration (nM)
T7 construct: whole, on cells; also called PDL1-CHOK1 cells; PDL1-Raji cells
T7 sequence (Q9NZQ7 19-290): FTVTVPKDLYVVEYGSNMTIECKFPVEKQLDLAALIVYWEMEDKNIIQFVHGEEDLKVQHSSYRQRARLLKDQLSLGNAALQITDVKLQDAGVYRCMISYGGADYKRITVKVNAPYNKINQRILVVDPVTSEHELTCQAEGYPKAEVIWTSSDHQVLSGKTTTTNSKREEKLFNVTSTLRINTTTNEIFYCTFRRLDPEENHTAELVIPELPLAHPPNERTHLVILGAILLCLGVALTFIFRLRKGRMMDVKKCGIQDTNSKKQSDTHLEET
Description: To evaluate the antigen binding property, the antibodies were analyzed for its binding to mammalian expressed PD-L1 by FACS. Briefly, PDL1-Raji cells were firstly incubated with 5-fold serious diluted humanized antibodies starting at 2 µg/ml at RT for 1 hour. After wash by FACS buffer (PBS with 2% FBS), the Alexa 488-anti-human IgG antibody was added to each well and incubated at RT for 1 hour. The MFI of Alexa 488 was evaluated by FACSAriaIII.

B1: 147H 3807b (antibody, V domains shown)
VH: EVQLVQSGAEVKKPGASVKVSCKASGYTFTNYWLGWIKQAPGQGLEWIGDIYPGGDYIVYNEKFKGKATLTADTSISTAYMELSRLRSDDTAVYYCARPNLPKDHWGQGTTVTVSS
VL: DIVMTQSPLSLPVTPGEPASISCRSSKSLLHSNAITYLYWYLQKPGQSPQLLIYQVSNLASGVPDRFSGSGSGTDFTLKISRVEAEDVGVYYCAQYLELPWTFGGGTKVEIK
notes: also called B3807b
Human LAG3 on cells [1]
  EC50: 0.33 nM
[2]
  EC50: 0.41 nM
[3]
  Kd: 0.51 nM
  koff: 0.002 s⁻¹
  kon: 4e+06 M⁻¹ s⁻¹
Human LAG3 on cells [4]
  EC50: 0.4 nM
[5]
  Kd: 0.968 nM
[6]
  koff: 0.00334 s⁻¹
[7]
  kon: 3.46e+06 M⁻¹ s⁻¹
Human LAG3 on cells [8]
  EC50: 0.39 nM
Human LAG3 on cells [9]
  EC50: 0.333 nM

B2: 147H 3810 (antibody, V domains shown)
VH: EVQLVQSGAEVKKPGASVKVSCKASGYLFTNYWLGWIKQAPGQGLEWIGDIYPGGDYIVYNEKFKGKATLTADTSISTAYMELSRLRSDDTAVYYCARPNLPKDHWGQGTTVTVSS
VL: DIVMTQSPLSLPVTPGEPASISCRSSKSLLHSNAITYLYWYLQKPGQSPQLLIYQVSNLATGVPDRFSGSGSGTDFTLKISRVEAEDVGVYYCAQYLELPWTFGGGTKVEIK
notes: also called B3810
Human LAG3 on cells [1]
  EC50: 0.39 nM
[2]
  EC50: 0.49 nM
[3]
  Kd: 0.41 nM
  koff: 0.0019 s⁻¹
  kon: 4.7e+06 M⁻¹ s⁻¹
Human LAG3 on cells [4]
  EC50: 0.5 nM
Human LAG3 on cells [10]
  EC50: 0.492 nM
Human LAG3 on cells [11]
  EC50: 0.391 nM

B3: 147(H3807)xH12 (bispecific antibody, human IgG4 S228P, kappa)
heavy: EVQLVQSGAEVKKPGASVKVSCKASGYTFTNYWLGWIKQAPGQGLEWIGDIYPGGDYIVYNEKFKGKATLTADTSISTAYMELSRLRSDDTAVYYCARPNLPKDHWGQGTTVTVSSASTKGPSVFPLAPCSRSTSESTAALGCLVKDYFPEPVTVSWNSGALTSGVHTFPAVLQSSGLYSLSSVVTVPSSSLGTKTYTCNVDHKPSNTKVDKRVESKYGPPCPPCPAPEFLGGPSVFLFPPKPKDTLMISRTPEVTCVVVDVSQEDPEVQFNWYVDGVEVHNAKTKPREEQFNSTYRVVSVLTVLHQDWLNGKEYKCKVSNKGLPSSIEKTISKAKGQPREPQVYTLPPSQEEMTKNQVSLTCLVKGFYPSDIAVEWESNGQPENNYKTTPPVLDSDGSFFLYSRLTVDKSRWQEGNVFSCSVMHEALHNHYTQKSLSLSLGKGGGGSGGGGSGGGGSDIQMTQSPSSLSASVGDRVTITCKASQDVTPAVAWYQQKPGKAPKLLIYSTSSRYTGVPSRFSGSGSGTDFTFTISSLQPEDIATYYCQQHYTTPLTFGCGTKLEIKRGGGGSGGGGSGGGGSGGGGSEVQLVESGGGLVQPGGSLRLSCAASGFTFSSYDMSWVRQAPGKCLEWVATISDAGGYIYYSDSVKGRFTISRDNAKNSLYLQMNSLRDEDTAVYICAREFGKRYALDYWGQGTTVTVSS
light: DIVMTQSPLSLPVTPGEPASISCRSSKSLLHSQGITYLYWYLQKPGQSPQLLIYQVSNLASGVPDRFSGSGSGTDFTLKISRVEAEDVGVYYCAQYLELPWTFGGGTKVEIKRTVAAPSVFIFPPSDEQLKSGTASVVCLLNNFYPREAKVQWKVDNALQSGNSQESVTEQDSKDSTYSLSSTLTLSKADYEKHKVYACEVTHQGLSSPVTKSFNRGEC
[12]
  EC50 (read off the curve): ~0.4 nM

B4: B6 (antibody, V domains shown)
VH: EVQLVESGGGLVQPGGSLRLSCAASGFTFSSYDMSWVRQAPGKSLEWVATISDAGGYIYYRDSVKGRFTISRDNAKNSLYLQMNSLRDEDTAVYICARELPWRYALDYWGQGTTVTVSS
VL: DIQMTQSPSSLSASVGDRVTITCKASQDVTPAVAWYQQKPGKAPKLLIYSTSSRYTGVPSRFSGSGSGTDFTFTISSLQPEDIATYYCQQHYTTPLTFGQGTKLEIK
notes: also called B6 monoclonal antibody
[13]
  Kd: 1.02 nM
  koff: 0.000246 s⁻¹
  kon: 242000 M⁻¹ s⁻¹
Human PD-L1-Fc protein
  EC50 (read off the curve): ~0.2 µg/mL
[14]
  EC50: 1.2 nM
